Values of other authors, collected in patent EP0314042A2, “Novel copolymers and superoxide dismutase modified with said copolymers” (KURARAY CO., LTD., priority 1987, dated 1989).

Columns and labels:
[1] = as compared with SOD; cited from earlier work
[2] = result in words, relative to SOD; cited from earlier work

| Substance | enzymatic activity of SOD [1] | plasma half-life [2] |
| --- | --- | --- |
| Ficoll-modified SOD: SOD converted to a giant molecule through modification with Ficoll | markedly decreased |  |
| inulin-modified SOD: SOD modified with inulin (Japanese Kokai Tokkyo Koho No. 58-32826) | reduced | much prolonged |
| polyethylene glycol-modified-SOD: SOD converted to a giant molecule through modification with polyethylene glycol | markedly decreased |  |
